Data from publication PMC5279944.

Legend:
[1] = target: plasma fibronectin purified from Fn1^syn/syn mice (pFN^syn) (mouse)
[2] = target: plasma fibronectin purified from Fn1^syn/syn mice (pFN^syn) (mouse); remark: listed apart in the source
[3] = target: plasma fibronectin purified from Fn1^syn/syn mice (pFN^syn) (mouse); remark: listed apart in the source
[4] = target: plasma fibronectin purified from Fn1^syn/syn mice (pFN^syn) (mouse); assay: cross-linking; serum-starved Fn1-KO fibroblasts seeded (15, 30 and 60 min) on pFN-coated glass coverslips, spun or not spun; 1 mM DTSSP 15 min at 4°C; cross-linked fraction released with 25 mM DTT, α5 integrin western blot; cross-linked over total integrin

Substance | adhesion of wild-type platelets under shear flow (1000/s, 10 min), pFN^syn compared to pFN^wt (fold reduction) [1] | pY397-FAK level in Fn1-KO cells plated on pFN^syn compared to pFN^wt [2] [% decrease] | adhesion strength (τ50, spinning disk) of Fn1-KO cells on pFN^syn compared to pFN^wt [3] [% decrease] | α5 integrin crosslinked to FN, percent of that on pFN^wt [4] [%] | mean spreading area of Itgb3^-/- platelets seeded for 60 min on pFN^syn [1] [μm^2]
αIIbβ3 integrin on mouse platelets (from UniProt Q9QUM0 32-1033; O54890 26-787) (receptor) | 10 |  |  |  | 
α5β1 integrin, endogenous on mouse cells (Fn1-KO fibroblasts) (from UniProt P11688 45-1053; P09055 21-798) (receptor) |  | 54 | 16 | 60 | 3.8
